Measurements reported in publication PMC4130151.

Molecular target: Fibronectin (UniProt P02751)
Experiment: SPR; BIAcore T100; FN covalently immobilised on CM5 chip; EF-Tu 0-10.0 μM injected in 10 mM HEPES, 150 mM NaCl, 3 mM EDTA, 0.005% P20, pH 7.4, 30 μL/min, 25°C; KD from equilibrium

UniProt P02751, sequence (P02751 32-2477): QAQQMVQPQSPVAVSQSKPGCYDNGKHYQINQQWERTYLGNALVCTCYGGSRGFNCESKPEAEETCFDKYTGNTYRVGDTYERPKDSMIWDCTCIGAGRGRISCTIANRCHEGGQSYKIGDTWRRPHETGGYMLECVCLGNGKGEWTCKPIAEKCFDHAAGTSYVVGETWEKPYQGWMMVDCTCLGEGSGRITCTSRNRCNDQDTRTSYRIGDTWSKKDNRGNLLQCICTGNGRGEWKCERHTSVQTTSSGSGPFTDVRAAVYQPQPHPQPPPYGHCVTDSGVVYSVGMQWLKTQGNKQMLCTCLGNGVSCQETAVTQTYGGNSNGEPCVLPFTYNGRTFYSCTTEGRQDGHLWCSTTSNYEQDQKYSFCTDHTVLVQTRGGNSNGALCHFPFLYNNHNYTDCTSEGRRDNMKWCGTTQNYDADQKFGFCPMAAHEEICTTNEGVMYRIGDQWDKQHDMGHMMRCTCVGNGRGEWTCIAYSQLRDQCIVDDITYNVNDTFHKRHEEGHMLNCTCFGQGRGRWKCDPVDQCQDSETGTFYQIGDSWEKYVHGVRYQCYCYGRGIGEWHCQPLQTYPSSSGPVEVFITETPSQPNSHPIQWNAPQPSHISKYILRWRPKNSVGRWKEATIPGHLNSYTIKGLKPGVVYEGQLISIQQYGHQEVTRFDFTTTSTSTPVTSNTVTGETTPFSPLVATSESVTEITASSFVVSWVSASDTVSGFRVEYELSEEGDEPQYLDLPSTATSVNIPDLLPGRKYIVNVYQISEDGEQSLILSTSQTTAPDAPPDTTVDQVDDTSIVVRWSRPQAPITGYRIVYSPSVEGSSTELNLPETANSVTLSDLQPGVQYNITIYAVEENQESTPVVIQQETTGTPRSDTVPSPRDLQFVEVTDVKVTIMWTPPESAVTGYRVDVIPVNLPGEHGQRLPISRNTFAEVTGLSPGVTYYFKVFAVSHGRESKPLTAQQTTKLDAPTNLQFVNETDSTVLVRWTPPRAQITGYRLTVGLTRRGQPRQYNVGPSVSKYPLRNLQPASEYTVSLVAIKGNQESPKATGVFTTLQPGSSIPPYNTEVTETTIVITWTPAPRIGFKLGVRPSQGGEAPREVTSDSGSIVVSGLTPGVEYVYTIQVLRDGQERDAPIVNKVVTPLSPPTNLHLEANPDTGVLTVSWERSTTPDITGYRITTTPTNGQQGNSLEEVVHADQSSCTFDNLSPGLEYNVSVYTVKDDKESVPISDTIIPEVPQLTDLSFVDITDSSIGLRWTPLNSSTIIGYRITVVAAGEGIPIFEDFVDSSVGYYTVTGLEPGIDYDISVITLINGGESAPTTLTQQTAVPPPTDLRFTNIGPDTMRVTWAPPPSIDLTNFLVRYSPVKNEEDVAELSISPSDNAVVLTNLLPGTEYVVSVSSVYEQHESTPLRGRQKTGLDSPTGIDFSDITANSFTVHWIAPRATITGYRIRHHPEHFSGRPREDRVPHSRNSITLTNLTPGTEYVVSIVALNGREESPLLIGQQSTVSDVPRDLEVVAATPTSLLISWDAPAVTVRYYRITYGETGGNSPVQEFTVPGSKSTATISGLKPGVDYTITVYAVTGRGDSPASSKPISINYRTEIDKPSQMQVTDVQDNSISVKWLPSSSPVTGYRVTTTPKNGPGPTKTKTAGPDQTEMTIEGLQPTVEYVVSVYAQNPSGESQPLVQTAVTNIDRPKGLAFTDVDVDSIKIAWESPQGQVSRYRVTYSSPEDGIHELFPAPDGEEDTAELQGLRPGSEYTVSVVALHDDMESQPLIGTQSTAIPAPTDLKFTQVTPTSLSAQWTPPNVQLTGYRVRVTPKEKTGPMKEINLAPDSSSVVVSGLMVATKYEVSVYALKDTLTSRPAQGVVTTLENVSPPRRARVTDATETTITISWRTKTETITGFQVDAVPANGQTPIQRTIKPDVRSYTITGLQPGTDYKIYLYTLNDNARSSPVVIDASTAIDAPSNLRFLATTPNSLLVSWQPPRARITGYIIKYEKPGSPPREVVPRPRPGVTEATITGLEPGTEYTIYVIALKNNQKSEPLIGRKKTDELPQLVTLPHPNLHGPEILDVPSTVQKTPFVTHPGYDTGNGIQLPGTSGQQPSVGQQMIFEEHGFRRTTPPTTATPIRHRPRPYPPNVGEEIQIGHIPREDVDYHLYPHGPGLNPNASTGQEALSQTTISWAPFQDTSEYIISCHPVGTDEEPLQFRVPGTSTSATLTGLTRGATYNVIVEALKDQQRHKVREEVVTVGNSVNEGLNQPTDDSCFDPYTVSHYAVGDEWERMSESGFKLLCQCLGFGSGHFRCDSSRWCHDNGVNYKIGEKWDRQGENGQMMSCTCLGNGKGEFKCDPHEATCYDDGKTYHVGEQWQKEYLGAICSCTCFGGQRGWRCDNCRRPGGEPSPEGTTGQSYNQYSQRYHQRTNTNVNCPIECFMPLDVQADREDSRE

Question: Which Kd does the source give for “Mycobacterium avium subsp. paratuberculosis elongation factor Tu (from UniProt Q73SD1 1-396) (natural protein)” here?
Answer: 3.1 µM
